Test results published in patent publication US20170260242, “METHOD FOR MODIFYING RNA BINDING PROTIEN USING PPR MOTIF” (Kyushu University, National University Corporation, published 2017).

Experiments:
HCF152/7&8 = biological target: T1, HCF152/7&8 (Arabidopsis thaliana, UniProt Q9SF38 SEQ:124-196); experiment: EMSA; A>U>G; 200 nM protein; details: tags: N-terminal thioredoxin, C-terminal His; label: 5'-32P
T1 chain: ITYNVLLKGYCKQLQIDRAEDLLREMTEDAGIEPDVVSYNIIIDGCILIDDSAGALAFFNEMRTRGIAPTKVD
Method: (§1) The binding specificity of the mini PPR proteins were analyzed by gel shift method. […] Then, to the reaction solution was added 4 μl of 80% glycerol solution, and 10 μL was developed in 10% nondenaturing polyacrylamide gel comprising 1×TBE (89 mM Tris-HCl, 89 mM Boric acid, and 2 mM EDTA) and the gel was dried after electrophoresis. The radioactivity of RNA in the gel was measured with Bioimaging Analyzer BAS2000 (From Fujifilm).

HCF152/9&10 = biological target: T2, HCF152/9&10 (Arabidopsis thaliana, UniProt Q9SF38 SEQ:124-194); experiment: EMSA; A>G>U; 200 nM protein; details: tags: N-terminal thioredoxin, C-terminal His; label: 5'-32P
T2 sequence: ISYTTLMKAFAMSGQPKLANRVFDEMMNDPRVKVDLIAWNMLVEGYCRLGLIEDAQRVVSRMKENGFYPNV
Method: as §1

HCF152/5&6 [1] = biological target: T3, HCF152/5&6 (Arabidopsis thaliana, UniProt Q9SF38 SEQ:124-197); experiment: EMSA; A>G>U; 200 nM protein; details: tags: N-terminal thioredoxin, C-terminal His; label: 5'-32P
T3 chain: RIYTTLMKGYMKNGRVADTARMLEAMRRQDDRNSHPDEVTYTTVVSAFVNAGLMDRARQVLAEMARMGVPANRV
Method: as §1

HCF152/2&3 = biological target: T4, HCF152/2&3 (Arabidopsis thaliana, UniProt Q9SF38 SEQ:124-194); experiment: EMSA; A>G>U; 200 nM protein; details: tags: N-terminal thioredoxin, C-terminal His; label: 5'-32P
T4 sequence: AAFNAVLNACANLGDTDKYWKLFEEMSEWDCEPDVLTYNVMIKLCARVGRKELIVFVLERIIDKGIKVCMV
Method: as §1

[2] = biological target: T5, CAR4/6 (CRR4 PPR motif 6) (Arabidopsis thaliana); experiment: EMSA; preference for A; details: tags: N-terminal thioredoxin, C-terminal His; label: 5'-32P
T5 chain: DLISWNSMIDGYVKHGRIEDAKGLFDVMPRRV

CAR4/6 (I1L) = biological target: T6, CAR4/6 (I1L) (Arabidopsis thaliana, UniProt O22137 SEQ:124-155); experiment: EMSA; did not bind A; details: tags: N-terminal thioredoxin, C-terminal His; label: 5'-32P
T6 chain: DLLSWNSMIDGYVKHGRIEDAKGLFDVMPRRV

HCF152/5&6 [3] = biological target: T3, HCF152/5&6; experiment: EMSA; 6 mM MgCl2, 30 mM KCl, pH 7.9, 25 C; details: tags: N-terminal thioredoxin, C-terminal His; label: 32P-UTP internal
Method: (§2) The RNA binding activity of the mini PPR protein was analyzed by gel shift method. […] Then, to the reaction solution was added 4 microliters of 80% glycerol solution, and 10 μL was developed in 10% nondenaturing polyacrylamide gel comprising 1×TBE (89 mM Tris-HCl, 89 mM Boric acid, and 2 mM EDTA) and the gel was dried after electrophoresis. The radioactivity of RNA in the gel was measured with Bioimaging Analyzer BAS2000 (From Fujifilm). […] This is because the molecular weight of the 32P-labeled RNA/protein conjugate is larger than the molecular weight of the 32P-labeled RNA alone and thus mobility in electrophoresis had become slower. The binding between protein and RNA was quantified based on the results in FIGS. 1C-H (FIG. 1B), and evaluated by determining the disassociation constant (Kd) (FIG. 2C).

5&6/5-K12N,6-N12K = biological target: T7, 5&6/5-K12N,6-N12K (Arabidopsis thaliana, UniProt Q9SF38 SEQ:124-197); experiment: EMSA; affinity improved vs 5-K12N; value in figure; details: tags: N-terminal thioredoxin, C-terminal His; label: 32P-UTP internal
T7 chain: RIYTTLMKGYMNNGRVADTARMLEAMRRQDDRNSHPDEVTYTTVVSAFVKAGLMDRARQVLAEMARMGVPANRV
Method: (§3) The RNA binding activity of the mini PPR protein was analyzed by gel shift method. […] Then, to the reaction solution was added 4 microliters of 80% glycerol solution, and 10 μL was developed in 10% nondenaturing polyacrylamide gel comprising 1×TBE (89 mM Tris-HCl, 89 mM Boric acid, and 2 mM EDTA) and the gel was dried after electrophoresis. The radioactivity of RNA in the gel was measured with Bioimaging Analyzer BAS2000 (From Fujifilm). […] The binding between protein and RNA was quantified based on the results in FIGS. 1C-H (FIG. 1B), and evaluated by determining the disassociation constant (Kd) (FIG. 2C).

5&6/5-K12M,6-N12R = biological target: T8, 5&6/5-K12M,6-N12R (Arabidopsis thaliana, UniProt Q9SF38 SEQ:124-197); experiment: EMSA; partly restored vs 6-N12R; details: tags: N-terminal thioredoxin, C-terminal His; label: 32P-UTP internal
T8 chain: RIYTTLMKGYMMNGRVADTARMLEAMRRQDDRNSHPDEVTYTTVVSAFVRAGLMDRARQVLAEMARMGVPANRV
Method: as §3

8&9/9-K8D = biological target: T9, 8&9/9-K8D (Arabidopsis thaliana, UniProt Q9SF38 SEQ:124-194); experiment: EMSA; no significant difference vs 8&9; details: tags: N-terminal thioredoxin, C-terminal His; label: 32P-UTP internal
T9 chain: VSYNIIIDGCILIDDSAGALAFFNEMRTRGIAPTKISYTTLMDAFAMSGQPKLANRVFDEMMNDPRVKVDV
Method: as §3

8&9/8-D8K,9-K8D = biological target: T10, 8&9/8-D8K,9-K8D (Arabidopsis thaliana, UniProt Q9SF38 SEQ:124-194); experiment: EMSA; no significant difference vs 8&9; details: tags: N-terminal thioredoxin, C-terminal His; label: 32P-UTP internal
T10 chain: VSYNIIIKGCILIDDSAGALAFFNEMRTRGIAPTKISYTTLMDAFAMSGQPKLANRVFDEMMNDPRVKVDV
Method: as §3

5&6/5-M11A = biological target: T11, 5&6/5-M11A (Arabidopsis thaliana, UniProt Q9SF38 SEQ:123-204); experiment: EMSA; position 11 not among those with 10-fold or more reduction (position-level); details: tags: N-terminal thioredoxin, C-terminal His; label: 32P-UTP internal
T11 chain: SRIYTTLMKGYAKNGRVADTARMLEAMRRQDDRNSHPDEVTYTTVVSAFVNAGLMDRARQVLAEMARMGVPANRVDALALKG
Method: as §2
(§4) Using HCF152/5&6 as the model, mini PPR proteins having one amino acid substitution introduced centering on the aforementioned positions (1st, 2nd, 4th, 5th, 8th, 9th, 11th, and 12th) were prepared. The amino acid substitutions were based on substitution to alanine. […] Affinity with RNA was analyzed by the same gel shift method as above (FIG. 3), and the affinity with the RNA was evaluated with Kd (FIG. 4B).

5&6/5-M11I = biological target: T12, 5&6/5-M11I (Arabidopsis thaliana, UniProt Q9SF38 SEQ:123-204); experiment: as above; details: tags: N-terminal thioredoxin, C-terminal His; label: 32P-UTP internal
T12 chain: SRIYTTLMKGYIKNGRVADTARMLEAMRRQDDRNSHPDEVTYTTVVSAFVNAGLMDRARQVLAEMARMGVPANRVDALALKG
Method: as §2, §4

HCF152/8&9 = biological target: T13, HCF152/8&9 (Arabidopsis thaliana, UniProt Q9SF38 SEQ:124-195); experiment: EMSA; 6 mM MgCl2, 30 mM KCl, pH 7.9, 25 C; details: tags: N-terminal thioredoxin, C-terminal His; label: 32P-UTP internal
T13 chain: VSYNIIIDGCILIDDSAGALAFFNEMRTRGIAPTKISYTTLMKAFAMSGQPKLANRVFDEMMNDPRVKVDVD
Method: as §3

HCF152/10&11 = biological target: T14, HCF152/10&11 (Arabidopsis thaliana, UniProt Q9SF38 SEQ:124-195); experiment: EMSA; 6 mM MgCl2, 30 mM KCl, pH 7.9, 25 C; details: tags: N-terminal thioredoxin, C-terminal His; label: 32P-UTP internal
T14 sequence: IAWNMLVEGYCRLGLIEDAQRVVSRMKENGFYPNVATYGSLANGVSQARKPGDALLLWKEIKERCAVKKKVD
Method: as §3

5&6/5-T5I = biological target: T15, 5&6/5-T5I (Arabidopsis thaliana, UniProt Q9SF38 SEQ:123-204); experiment: EMSA; position 5 not among those with 10-fold or more reduction (position-level); details: tags: N-terminal thioredoxin, C-terminal His; label: 32P-UTP internal
T15 chain: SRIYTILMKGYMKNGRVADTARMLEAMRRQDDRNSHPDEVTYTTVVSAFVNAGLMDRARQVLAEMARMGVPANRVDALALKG
Method: as §2, §4

5&6/5-K12H = biological target: T16, 5&6/5-K12H (Arabidopsis thaliana, UniProt Q9SF38 SEQ:124-197); experiment: EMSA; Kd almost equivalent to wild type 5&6; value in figure; details: tags: N-terminal thioredoxin, C-terminal His; label: 32P-UTP internal
T16 chain: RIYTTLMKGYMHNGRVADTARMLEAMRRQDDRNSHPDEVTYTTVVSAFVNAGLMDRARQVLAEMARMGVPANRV
Method: as §2

5&6/5-G14D = biological target: T17, 5&6/5-G14D (Arabidopsis thaliana, UniProt Q9SF38 SEQ:124-197); experiment: EMSA; position 14 not among those with 10-fold or more reduction (position-level); details: tags: N-terminal thioredoxin, C-terminal His; label: 32P-UTP internal
T17 chain: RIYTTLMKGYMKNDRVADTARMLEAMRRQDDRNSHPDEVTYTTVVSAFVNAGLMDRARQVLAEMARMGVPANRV
Method: as §2, §4

5&6/5-G14A = biological target: T18, 5&6/5-G14A (Arabidopsis thaliana, UniProt Q9SF38 SEQ:124-197); experiment: as above; details: tags: N-terminal thioredoxin, C-terminal His; label: 32P-UTP internal
T18 chain: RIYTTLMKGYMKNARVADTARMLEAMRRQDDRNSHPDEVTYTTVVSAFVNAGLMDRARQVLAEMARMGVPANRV
Method: as §2, §4

8&9/8-D8K = biological target: T19, 8&9/8-D8K (Arabidopsis thaliana, UniProt Q9SF38 SEQ:124-194); experiment: EMSA; no change vs 8&9; details: tags: N-terminal thioredoxin, C-terminal His; label: 32P-UTP internal
T19 chain: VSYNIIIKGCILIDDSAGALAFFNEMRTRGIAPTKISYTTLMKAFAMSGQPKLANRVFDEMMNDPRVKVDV
Method: as §2

6&7/7-N4T = biological target: T20, 6&7/7-N4T (Arabidopsis thaliana, UniProt Q9SF38 SEQ:124-195); experiment: EMSA; affinity improved vs 6&7; value in figure; details: tags: N-terminal thioredoxin, C-terminal His; label: 32P-UTP internal
T20 chain: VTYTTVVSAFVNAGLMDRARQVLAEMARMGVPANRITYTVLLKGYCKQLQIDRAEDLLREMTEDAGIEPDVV
Method: as §3

6&7/6-S8K = biological target: T21, 6&7/6-S8K (Arabidopsis thaliana, UniProt Q9SF38 SEQ:124-195); experiment: EMSA; affinity improved vs 6&7; value in figure; details: tags: N-terminal thioredoxin, C-terminal His; label: 32P-UTP internal
T21 chain: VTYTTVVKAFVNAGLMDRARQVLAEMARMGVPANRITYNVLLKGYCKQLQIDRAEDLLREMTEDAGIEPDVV
Method: as §3

6&7/6-V1R = biological target: T22, 6&7/6-V1R (Arabidopsis thaliana, UniProt Q9SF38 SEQ:124-195); experiment: EMSA; affinity improved vs 6&7; value in figure; details: tags: N-terminal thioredoxin, C-terminal His; label: 32P-UTP internal
T22 chain: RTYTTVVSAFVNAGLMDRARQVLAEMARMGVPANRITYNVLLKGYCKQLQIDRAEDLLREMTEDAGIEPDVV
Method: as §3

5&6/5-N13A = biological target: T23, 5&6/5-N13A (Arabidopsis thaliana, UniProt Q9SF38 SEQ:123-204); experiment: EMSA; position 13 not among those with 10-fold or more reduction (position-level); details: tags: N-terminal thioredoxin, C-terminal His; label: 32P-UTP internal
T23 chain: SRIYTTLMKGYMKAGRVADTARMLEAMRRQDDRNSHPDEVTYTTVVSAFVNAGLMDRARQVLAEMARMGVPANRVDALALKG
Method: as §2, §4

5&6/5-N13L = biological target: T24, 5&6/5-N13L (Arabidopsis thaliana, UniProt Q9SF38 SEQ:123-204); experiment: as above; details: tags: N-terminal thioredoxin, C-terminal His; label: 32P-UTP internal
T24 chain: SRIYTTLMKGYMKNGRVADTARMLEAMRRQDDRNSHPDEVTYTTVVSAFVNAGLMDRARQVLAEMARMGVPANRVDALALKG
Method: as §2, §4

AUCGAAAAAAAAAAAAAAAAAAAAAAAAA (ssRNA) [LA25]
no binding: binding result (CAR4/6 (I1L))
binds: binding result (HCF152/7&8) | binding result (HCF152/9&10) | binding result (HCF152/5&6 [1]) | binding result (HCF152/2&3) | binding result [2]

B1: BD120 (petB) (ssRNA)
RNA: CUGGAUGGAAUUUCAGUGAAUUAGACUGAGAAGAAUCUUGAAGUUCUAGCUUUUAGCUCGAUACAAAAAAGUAAAGUAUGCAGGUCUAACAAUUUUAGCCUAUUCUCCUUUGGUAGUUCG
5240 nM: Kd (HCF152/10&11)
473 nM: Kd (5&6/5-K12M,6-N12R)
5.3 nM: Kd (HCF152/8&9)
21.1 nM: Kd (HCF152/5&6 [3])
binds: binding result (5&6/5-K12N,6-N12K) | binding result (8&9/9-K8D) | binding result (8&9/8-D8K,9-K8D) | binding result (5&6/5-M11A) | binding result (5&6/5-M11I) | binding result (5&6/5-T5I) | binding result (5&6/5-K12H) | binding result (5&6/5-G14D) | binding result (5&6/5-G14A) | binding result (8&9/8-D8K) | binding result (6&7/7-N4T) | binding result (6&7/6-S8K) | binding result (6&7/6-V1R) | binding result (5&6/5-N13A) | binding result (5&6/5-N13L)
